# Measurements taken from article PMC3797752 (2013).
# B1: mAb VRC01 (antibody, V domains shown)
# VH: QVQLVQSGGQMKKPGESMRISCRASGYEFIDCTLNWIRLAPGKRPEWMGWLKPRGGAVNYARPLQGRVTMTRDVYSDTAFLELRSLTVDDTAVYFCTRGKNCDYNWDFEHWGRGTPVIVSS
# VL: EIVLTQSPGTLSLSPGETAIISCRTSQYGSLAWYQQRPGQAPRLVIYSGSTRAAGIPDRFSGSRWGPDYNLTISNLESGDFGVYYCQQYEFFGQGTKVQVD
# Target: wild-type SF162 gp120 (HIV-1 SF162)
# Assay: SPR
binder,measurement,value
B1,Kd,2.08 nM
